System: HIV-1 reverse transcriptase (HXB2-RT) (HIV-1 (HXB2))
Assay: MST
Conditions: MST: 50 nM RNA complex titrated with RT; binding buffer, pH and temperature not stated; annealing buffer 10 mM Tris-HCl pH 7.5, 10 mM NaCl, 1 mM MgCl2, 140 mM …

MAL 5'UTR:tRNALys3
Kd: 1360 nM

Reference: PMC7793103
